Measured values from US20200216536A1 (published 2020).
Substitutions are numbered along the chain they refer to. Names and notes keep the numbering of the source. Values joined by “and” are separate entries in the source; they are usually repeats but may differ in a detail not shown here. Identical values can stand only once. One block for each binder: values may come before it.

How the values were obtained:
[1] = target: T1, canine FcRn (UniProtKB-E2ROL6 [FcRn] and UniProtKB-E2RN10 [canine beta-2-microglobulin]) (canine); experiment: SPR Biacore 8K, pH 5.5, Fc captured on BSA via SASA tag, FcRn 400 nM
T1 construct: Soluble analyte injected in SPR

[2] = target: T1, canine FcRn (UniProtKB-E2ROL6 [FcRn] …); experiment: SPR Biacore 8K, pH 5.5, Fc captured on BSA via SASA tag, FcRn 200 nM
[3] = target: T1, canine FcRn (UniProtKB-E2ROL6 [FcRn] …); experiment: as above; remark: listed apart in the source
[4] = target: T1, canine FcRn (UniProtKB-E2ROL6 [FcRn] …); experiment: as above; remark: listed apart in the source
[5] = target: T1, canine FcRn (UniProtKB-E2ROL6 [FcRn] …); experiment: SPR Biacore 8K, pH 5.5, Fc captured on BSA via SASA tag, FcRn 100-800 nM
[6] = target: T1, canine FcRn (UniProtKB-E2ROL6 [FcRn] …); experiment: SPR Biacore 8K, pH 5.5, Fc captured on BSA via SASA tag, FcRn 200 nM; remark: listed apart in the source
[7] = target: T1, canine FcRn (UniProtKB-E2ROL6 [FcRn] …); experiment: as above; remark: listed apart in the source
[8] = target: T1, canine FcRn (UniProtKB-E2ROL6 [FcRn] …); experiment: as above; remark: listed apart in the source
[9] = target: T1, canine FcRn (UniProtKB-E2ROL6 [FcRn] …); experiment: as above; remark: listed apart in the source
[10] = target: T1, canine FcRn (UniProtKB-E2ROL6 [FcRn] …); experiment: as above; remark: listed apart in the source

B1: canine IgG.B Fc (CH2-CH3) variant E380A (Fc fusion)
chain: APEMLGGPSVFIFPPKPKDTLLIARTPEVTCVVVDLDPEDPEVQISWFVDGKQMQTAKTQPREEQFNGTYRVVSVLPIGHQDWLKGKQFTCKVNNKALPSPIERTISKARGQAHQPSVYVLPPSREELSKNTVSLTCLIKDFFPPDIDVAWQSNGQQEPESKYRTTPPQLDEDGSYFLYSKLSVDKSRWQRGDTFICAVMHEALHNHYTQESLSHSPGK
Kd [1]: 0.618 µM and 0.747 µM | koff [1]: 0.369 s⁻¹ and 0.18 s⁻¹ | kon [1]: 598000 M⁻¹ s⁻¹ and 241000 M⁻¹ s⁻¹ | Kd [2]: 1.32 µM and 1.57 µM | koff [2]: 0.223 s⁻¹ and 0.239 s⁻¹ | kon [2]: 168000 M⁻¹ s⁻¹ and 152000 M⁻¹ s⁻¹

B2: canine IgG.B Fc (CH2-CH3) variant G309P (Fc fusion)
chain: B1 chain with G79P, A150E
Kd [3]: 0.635 µM and 0.434 µM and 0.637 µM and 0.718 µM | koff [3]: 0.239 s⁻¹ and 0.242 s⁻¹ and 0.132 s⁻¹ and 0.145 s⁻¹ | kon [3]: 377000 M⁻¹ s⁻¹ and 558000 M⁻¹ s⁻¹ and 207000 M⁻¹ s⁻¹ and 202000 M⁻¹ s⁻¹

B5: canine IgG.B Fc (CH2-CH3) variant I308A (Fc fusion)
chain: B1 chain with I78A, A150E
Kd [1]: 0.472 µM and 0.563 µM | koff [1]: 0.169 s⁻¹ and 0.194 s⁻¹ | kon [1]: 357000 M⁻¹ s⁻¹ and 345000 M⁻¹ s⁻¹

B6: canine IgG.B Fc (CH2-CH3) variant K315A (Fc fusion)
chain: B1 chain with K85A, A150E
Kd [1]: 0.422 µM and 0.548 µM

B7: canine IgG.B Fc (CH2-CH3) variant M428A (Fc fusion)
chain: B1 chain with A150E, M200A
Kd [1]: 0.723 µM and 1.67 µM | kon [1]: 234000 M⁻¹ s⁻¹ and 318000 M⁻¹ s⁻¹

B8: canine IgG.B Fc (CH2-CH3) YTE variant (L252Y/A254T/T256E) (Fc fusion)
chain: B1 chain with L22Y, A24T, T26E, A150E
Kd [5]: 0.184 µM | koff [5]: 0.046 s⁻¹ | kon [5]: 250000 M⁻¹ s⁻¹

B10: canine IgG.B Fc (CH2-CH3) variant L252Y (Fc fusion)
chain: B1 chain with L22Y, A150E
Kd [6]: 0.0987 µM and 0.114 µM | koff [6]: 0.0397 s⁻¹ and 0.041 s⁻¹ | kon [6]: 402000 M⁻¹ s⁻¹ and 358000 M⁻¹ s⁻¹ | Kd [5]: 0.173 µM | koff [5]: 0.0476 s⁻¹ | kon [5]: 275000 M⁻¹ s⁻¹

B11: canine IgG.B Fc (CH2-CH3) variant G309A (Fc fusion)
chain: B1 chain with G79A, A150E
Kd [1]: 0.245 µM and 0.294 µM

B14: canine IgG.B Fc (CH2-CH3) variant L252A (Fc fusion)
chain: B1 chain with L22A, A150E
Kd [1]: 0.292 µM and 0.24 µM

B15: canine IgG.B Fc (CH2-CH3) variant D378V (Fc fusion)
chain: B1 chain with D148V, A150E
Kd [7]: 0.693 µM and 0.873 µM | koff [7]: 0.159 s⁻¹ and 0.16 s⁻¹ | kon [7]: 229000 M⁻¹ s⁻¹ and 184000 M⁻¹ s⁻¹

B18: canine IgG.B Fc (CH2-CH3) variant A254S (Fc fusion)
chain: B1 chain with A24S, A150E
Kd [1]: 0.34 µM and 0.317 µM

B19: canine IgG.B Fc (CH2-CH3) variant D378A (Fc fusion)
chain: B1 chain with D148A, A150E
Kd [1]: 0.673 µM and 0.592 µM | koff [1]: 0.183 s⁻¹ and 0.181 s⁻¹ | kon [1]: 272000 M⁻¹ s⁻¹ and 306000 M⁻¹ s⁻¹

B24: canine IgG.B Fc (CH2-CH3) variant L252M (Fc fusion)
chain: B1 chain with L22M, A150E
Kd [6]: 0.869 µM and 0.774 µM | koff [6]: 0.168 s⁻¹ and 0.169 s⁻¹ | kon [6]: 193000 M⁻¹ s⁻¹ and 218000 M⁻¹ s⁻¹

B25: canine IgG.B Fc (CH2-CH3) variant A254T (Fc fusion)
chain: B1 chain with A24T, A150E
Kd [9]: 2.29 µM and 1.34 µM | koff [9]: 0.375 s⁻¹ and 0.433 s⁻¹ | kon [9]: 163000 M⁻¹ s⁻¹ and 323000 M⁻¹ s⁻¹

B28: canine IgG.B Fc (CH2-CH3) variant H433A (Fc fusion)
chain: B1 chain with A150E, H205A
Kd [1]: 0.266 µM and 0.359 µM | koff [1]: 0.229 s⁻¹ and 0.0997 s⁻¹

B30: canine IgG.B Fc (CH2-CH3) variant N434A (Fc fusion)
chain: B1 chain with A150E, N206A
Kd [1]: 0.457 µM and 0.494 µM | koff [1]: 0.237 s⁻¹ and 0.477 s⁻¹ | kon [1]: 518000 M⁻¹ s⁻¹ and 966000 M⁻¹ s⁻¹ | Kd [4]: 0.573 µM and 0.629 µM | koff [4]: 0.156 s⁻¹ and 0.164 s⁻¹ | kon [4]: 272000 M⁻¹ s⁻¹ and 261000 M⁻¹ s⁻¹

Other lines, results leading:

Kd [4]: 0.924 µM and 1.05 µM | koff [4]: 0.207 s⁻¹ and 0.209 s⁻¹ | kon [4]: 225000 M⁻¹ s⁻¹ and 199000 M⁻¹ s⁻¹
B3: canine IgG.B Fc (CH2-CH3) variant N434S (Fc fusion)
chain: B1 chain with A150E, N206S

Kd [1]: 0.341 µM and 0.257 µM
B4: canine IgG.B Fc (CH2-CH3) variant Q285A (Fc fusion)
chain: B1 chain with Q55A, A150E

Kd [1]: 0.325 µM and 0.338 µM
B9: canine IgG.B Fc (CH2-CH3) variant P307A (Fc fusion)
chain: B1 chain with P77A, A150E

Kd [1]: 0.335 µM and 0.328 µM
B12: canine IgG.B Fc (CH2-CH3) variant T250A (Fc fusion)
chain: B1 chain with T20A, A150E

Kd [4]: 0.107 µM and 0.159 µM | koff [4]: 0.0524 s⁻¹ and 0.0633 s⁻¹ | kon [4]: 488000 M⁻¹ s⁻¹ and 399000 M⁻¹ s⁻¹ | Kd [5]: 0.182 µM | koff [5]: 0.0801 s⁻¹ | kon [5]: 440000 M⁻¹ s⁻¹
B13: canine IgG.B Fc (CH2-CH3) variant N434R (Fc fusion)
chain: B1 chain with A150E, N206R

Kd [8]: 0.372 µM and 0.439 µM | koff [8]: 0.566 s⁻¹ and 0.696 s⁻¹ | kon [8]: 1.52e+06 M⁻¹ s⁻¹ and 1.59e+06 M⁻¹ s⁻¹
B16: canine IgG.B Fc (CH2-CH3) variant Q311V (Fc fusion)
chain: B1 chain with Q81V, A150E

Kd [1]: 0.393 µM and 0.876 µM | koff [1]: 0.407 s⁻¹ and 0.213 s⁻¹
B17: canine IgG.B Fc (CH2-CH3) variant Y436A (Fc fusion)
chain: B1 chain with A150E, Y208A

Kd [1]: 0.464 µM and 0.569 µM | koff [1]: 0.196 s⁻¹ and 0.304 s⁻¹ | kon [1]: 422000 M⁻¹ s⁻¹ and 533000 M⁻¹ s⁻¹
B20: canine IgG.B Fc (CH2-CH3) variant T286A (Fc fusion)
chain: B1 chain with T56A, A150E

Kd [4]: 0.0159 µM | koff [4]: 0.00968 s⁻¹ | kon [4]: 607000 M⁻¹ s⁻¹ | Kd [5]: 0.0291 µM | koff [5]: 0.0151 s⁻¹ | kon [5]: 520000 M⁻¹ s⁻¹
B21: canine IgG.B Fc (CH2-CH3) variant N434Y (Fc fusion)
chain: B1 chain with A150E, N206Y

Kd [1]: 0.447 µM and 0.298 µM
B22: canine IgG.B Fc (CH2-CH3) variant T256A (Fc fusion)
chain: B1 chain with T26A, A150E

Kd [1]: 0.368 µM and 0.37 µM | koff [1]: 0.894 s⁻¹ and 0.496 s⁻¹ | kon [1]: 2.43e+06 M⁻¹ s⁻¹ and 1.34e+06 M⁻¹ s⁻¹
B23: canine IgG.B Fc (CH2-CH3) variant Q311A (Fc fusion)
chain: B1 chain with Q81A, A150E

Kd [10]: 2.48 µM and 1.66 µM | koff [10]: 0.284 s⁻¹ and 0.287 s⁻¹ | kon [10]: 114000 M⁻¹ s⁻¹ and 172000 M⁻¹ s⁻¹
B26: canine IgG.B Fc (CH2-CH3) variant T250E (Fc fusion)
chain: B1 chain with T20E, A150E

Kd [10]: 2.59 µM and 2.84 µM | koff [10]: 0.258 s⁻¹ and 0.268 s⁻¹ | kon [10]: 99600 M⁻¹ s⁻¹ and 94300 M⁻¹ s⁻¹
B27: canine IgG.B Fc (CH2-CH3) variant T250Q (Fc fusion)
chain: B1 chain with T20Q, A150E

Kd [5]: 0.247 µM | koff [5]: 0.102 s⁻¹ | kon [5]: 411000 M⁻¹ s⁻¹
B29: canine IgG.B Fc (CH2-CH3) variant N434H (Fc fusion)
chain: B1 chain with A150E, N206H

Kd [4]: 0.0404 µM and 0.0757 µM | Kd [5]: 0.101 µM | koff [5]: 0.045 s⁻¹ | kon [5]: 446000 M⁻¹ s⁻¹
B31: canine IgG.B Fc (CH2-CH3) variant N434W (Fc fusion)
chain: B1 chain with A150E, N206W
